Experimental findings from patent US12173330B2, “Method for producing hydroxy-L-pipecolic acid” (API CORPORATION, priority 2015, dated 2024) are described below.

As usually defined, the Km is the substrate concentration at which the rate is half of its maximum.

One data set deals with O=C(O)[C@@H]1CCCCN1. The data set is described as follows: purified protein, by the assay type.
The subject of the next data set is O=C(O)[C@@H]1CCCN1. The data set is described as follows: purified protein, by the assay type. The following applies: other: substrate: L-proline, 20 mmol/L 2-oxoglutaric acid, 30° C.
Setting [1] is: other: substrate: L-pipecolic acid, 20 mmol/L 2-oxoglutaric acid, 30° C.

Consider “Colletotrichum gloeosporioides Nara qc5 L-pipecolic acid trans-4-hydroxylase CgPH, SEQ ID NO: 12 (Colletotrichum fructicola Nara gc5)”, for which the Km with O=C(O)[C@@H]1CCCCN1 (setting [1]) was determined as 8560 µM.
For “Gibberella zeae PH-1 L-pipecolic acid trans-4-hydroxylase GzPH, SEQ ID NO: 16 (Fusarium graminearum PH-1)”, the Km in the data set on O=C(O)[C@@H]1CCCCN1 (30.0 °C) amounted to 4720 µM.
“Segniliparus rugosus ATCC BAA-974 L-pipecolic acid cis-5-hydroxylase SruPH, SEQ ID NO: 4 (Segniliparus rugosus ATCC BAA-974)”: the Km in the data set on O=C(O)[C@@H]1CCCN1 was 400 µM; with O=C(O)[C@@H]1CCCCN1 (setting [1]), 1090 µM.
